Assay results taken from patent publication US6322962A, “Sterol-regulated Site-1 protease and assays of modulators thereof” (Board of Regents, The University of Texas System, priority 1999, dated 2001).
Numbering of substitutions follows the chain as printed. In names and notes the source's numbering stands. Entries after “also recorded” stand apart in the source; their conditions may differ. Peptide text beside a SMILES is read from it. * marks the point of attachment. AMC = Cc1cc(=O)oc2cc(N*)ccc12

How the values were obtained:
[1] = test system: SKI-1; settings: Seidah et al., 1999, preliminary data; cited from earlier work
[2] = target: T1, purified S1P(983)-C (Cricetulus griseus, UniProt Q9Z2A8, T875N); experiment: Fluorogenic peptide assay for S1P activity (cleavage of MCA-conjugated peptides); format: biochemical, hamster
T1 construct: Truncated S1P (amino acids 1-983); GGR linker (NotI site); made in house; host or cells: SRD-12B cells (mutant CHO cells lacking S1P) stably transfected with pCMV-S1P(983)-Myc-His (TR-3117, 'S1P(983) cells'); secreted into the medium and purified on Ni-NTA
T1 sequence (Q9Z2A8 187-983 T875N): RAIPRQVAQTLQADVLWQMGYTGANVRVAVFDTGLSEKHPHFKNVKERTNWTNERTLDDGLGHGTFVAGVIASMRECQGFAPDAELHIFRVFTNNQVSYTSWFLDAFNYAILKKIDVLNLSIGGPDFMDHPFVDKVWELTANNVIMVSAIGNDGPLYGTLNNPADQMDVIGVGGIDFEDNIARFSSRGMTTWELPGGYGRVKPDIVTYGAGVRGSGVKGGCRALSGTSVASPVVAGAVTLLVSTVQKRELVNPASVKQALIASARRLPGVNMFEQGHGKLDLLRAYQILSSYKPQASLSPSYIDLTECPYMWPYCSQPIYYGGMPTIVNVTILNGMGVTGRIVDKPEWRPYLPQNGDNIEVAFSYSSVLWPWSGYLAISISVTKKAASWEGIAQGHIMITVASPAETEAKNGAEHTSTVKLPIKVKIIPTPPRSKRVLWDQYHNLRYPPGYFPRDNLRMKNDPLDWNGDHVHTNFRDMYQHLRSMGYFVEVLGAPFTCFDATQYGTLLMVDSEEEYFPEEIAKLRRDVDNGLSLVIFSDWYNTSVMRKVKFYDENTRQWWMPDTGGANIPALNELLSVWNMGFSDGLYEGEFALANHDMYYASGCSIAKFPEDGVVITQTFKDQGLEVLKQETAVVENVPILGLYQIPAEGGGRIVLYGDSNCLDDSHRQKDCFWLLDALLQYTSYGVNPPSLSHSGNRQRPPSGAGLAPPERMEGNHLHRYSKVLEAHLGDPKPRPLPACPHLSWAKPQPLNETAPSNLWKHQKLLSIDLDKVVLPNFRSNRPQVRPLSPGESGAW
Method: Fluorogenic Peptide Assay for S1P Activity
S1P activity was measured fluorometrically with MCA-conjugated peptidyl substrates. Each reaction was carried out in 0.2 ml of assay buffer (25 mM Tris, 25 mM Mes, 25 mM acetic acid, and 1 mM CaCl2 adjusted to pH 8.0 with concentrated NaOH). Reactions contained MCA-peptide (final concentration 100 μM, added in 2 μl DMSO) and […] of purified S1P(983)-C. After incubation for 0.5-5 h at 37° C., each reaction was terminated by addition of 1 ml of ice-cold 5 mM sodium EDTA. The liberated 7-amino-4-methyl-coumarin (AMC) was measured with a Perkin-ElmerLS-30 luminescence spectrometer (360 nm excitation, 460 nm emission). A standard curve of fluorescence intensity was generated with different concentrations of AMC (Promega).
Similar substrates have been used to assay furin, prohormone convertases, and other subtilisin-related enzymes (Nakayama, 1997). […] The sequence of this peptide corresponds to the sequence at Site-B of S1P, which is known to be cleaved by S1P in an autocatalytic reaction. Fluorescence rose linearly with time for 5 h. […] This differs from the observations with furin and the prohormone convertases, whose pH optima are generally in the range of 6-7 (Nakayama, 1997).
The indicated fluorogenic peptide-MCA (100 μM) was incubated with 3 μg of purified S1P(983)-C at 37° C. for 5 h. The S1P activity of Ac-VFRSLK-MCA (SEQ ID NO:13, 930 pmol per min/mg protein) was set at 1.0, and the activity of the other substrates was expressed relative to this value. Each value represents the average of duplicate incubations, which varied from each other by <10%.

[3] = test system: PLAP-BP2(513-1141) in SRD-12B cells; experiment: Secreted alkaline phosphatase assay in SRD-12B cells transfected with wild-type or mutant S1P cDNAs; format: cell-based, hamster; settings: Myc-tagged S1P cDNA
[4] = test system: SREBP-2; experiment: Immunoblot of cleavage of HSV-tagged SREBP-2 in transfected SRD-12B cells; format: cell-based, hamster; settings: SRD-12B cells, HSV-tagged SREBP-2
Method: On day 0, SRD-12B cells were set up at a density of 6×10^5 cells/60-mm dish in medium B. On day 1, cells were transfected with 4 μg of the indicated plasmid DNA plus 12 μl of LipofectAMINE™ reagent (Life Technologies) according to the manufacturer's instructions with modifications as follows. LipofectAMINE™/DNA complexes were formed in 1 ml of serum-free medium for 15 min at room temperature, and 0.5 ml were added to 1 ml of serum-free medium per dish. […] After incubation at 37 ° C. for 20 h, the cells received N-acetyl-leucinal-leucinal norleucinal (ALLN) at a final concentration of 25 μg/ml. […] After boiling for 5 min, the proteins were subjected to SDS-PAGE and transferred to Hybond-C Extra nitrocellulose filters (Amersham). The filters were incubated with the antibodies described in the figure legends. […] Gels were calibrated with prestained molecular weight markers (New England Biolabs, Beverly, Mass.). Filters were exposed to X-Omat Blue XB-1 film (Kodak, Rochester, N.Y.) with intensifying screens at room temperature for the indicated time.
Cell membranes and nuclear extracts were subjected to electrophoresis and blotted with an antibody against the HSV epitope-tag.
In a more direct test for S1P catalytic activity, the mutant plasmids were transfected into the SRD-12B cells together with pTK-HSV-BP2. Membranes and nuclear extracts were subjected to SDS-PAGE and blotted with an antibody against the HSV-tagged SREBP-2 (FIG. 9B).
The inventors cotransfected cDNAs encoding wild-type S1P or one of the mutants. Cell membrane pellets and nuclear extracts were subjected to SDS-PAGE. and the NH2 -terminus of SREBP-2 was visualized by immunoblotting with anti-HSV (FIG. 16A).

[5] = target: HSV-tagged human SREBP-2, wild-type (human) (UniProt Q12772)

## 27-amino acid synthetic peptide: 27-amino acid synthetic peptide corresponding to the luminal loop sequence of human SREBP-2 (GGAHDSDQHPHSGSGRSVLSFESGSGG)
[1]
  cleavage by SKI-1 culture medium: able to cleave

## CC(=O)N[C@@H](CCCNC(=N)N)C(=O)N[C@@H](CO)C(=O)N[C@H](C(=O)N[C@@H](CC(C)C)C(=O)Nc1ccc2c(C)cc(=O)oc2c1)C(C)C [Ac-RSVL-MCA, Ac-Arg-Ser-Val-Leu-MCA] (Ac-RSVL-{AMC})
[1]
  cleavage by SKI-1 culture medium: unable to cleave
[2]; 100 μM peptide-MCA, 3 μg S1P(983)-C, 37° C., 5 h, Ac-VFRSLK-MCA set at 1.0
  Relative Activity: < 0.1
[2]; result in words
  cleavage of the peptide: did not cleave; also recorded: does not cleave

B1: wild-type S1P: hamster Site-1 protease expressed from cDNA (protein, UniProt Q9Z2A8 187-1052, looked up)
Membrane-bound transcription …: RAIPRQVAQTLQADVLWQMGYTGANVRVAVFDTGLSEKHPHFKNVKERTNWTNERTLDDGLGHGTFVAGVIASMRECQGFAPDAELHIFRVFTNNQVSYTSWFLDAFNYAILKKIDVLNLSIGGPDFMDHPFVDKVWELTANNVIMVSAIGNDGPLYGTLNNPADQMDVIGVGGIDFEDNIARFSSRGMTTWELPGGYGRVKPDIVTYGAGVRGSGVKGGCRALSGTSVASPVVAGAVTLLVSTVQKRELVNPASVKQALIASARRLPGVNMFEQGHGKLDLLRAYQILSSYKPQASLSPSYIDLTECPYMWPYCSQPIYYGGMPTIVNVTILNGMGVTGRIVDKPEWRPYLPQNGDNIEVAFSYSSVLWPWSGYLAISISVTKKAASWEGIAQGHIMITVASPAETEAKNGAEHTSTVKLPIKVKIIPTPPRSKRVLWDQYHNLRYPPGYFPRDNLRMKNDPLDWNGDHVHTNFRDMYQHLRSMGYFVEVLGAPFTCFDATQYGTLLMVDSEEEYFPEEIAKLRRDVDNGLSLVIFSDWYNTSVMRKVKFYDENTRQWWMPDTGGANIPALNELLSVWNMGFSDGLYEGEFALANHDMYYASGCSIAKFPEDGVVITQTFKDQGLEVLKQETAVVENVPILGLYQIPAEGGGRIVLYGDSNCLDDSHRQKDCFWLLDALLQYTSYGVTPPSLSHSGNRQRPPSGAGLAPPERMEGNHLHRYSKVLEAHLGDPKPRPLPACPHLSWAKPQPLNETAPSNLWKHQKLLSIDLDKVVLPNFRSNRPQVRPLSPGESGAWDIPGGIMPGRYNQEVGQTIPVFAFLGAMVALAFFVVQISKAKSRPKRRRPRAKRPQLTQQTHPPRTPSV
[3]
  PLAP activity in the culture medium: increased
[4]
  cleavage of SREBP-2 by S1P or S1P mutant: maximal cleavage
[4]; listed as Wild-type S1P
  cleavage of SREBP-2 by S1P or S1P mutant: restored cleavage

B2: 5411A: control S1P mutant, serine near catalytic triad mutated to alanine (protein, UniProt Q9Z2A8 187-1052, looked up, variant S411A)
Membrane-bound transcription …: B1 Membrane-bound transcription … with S225A
[3]
  PLAP activity relative to wild-type levels: 50-70 % of wild-type levels

B3: Myc-S1P(Site-B mutant) (enzyme)
chain: DGGRSEQKLISEEDLNGEQKLISEEDLNGEQKLISEEDLNSSGRLGKKAFEKASCPSCSHLTLKVEFSSTVVEYEYIVAFNGYFTAKARNSFISSALKSSEVDNWRIIPRNNPSSDYPSDFEVIQIKEKQKAGLLTLEDHPNIKRVTPQRKVFAAAAFAESDPIVPCNETRWSQKWQSSRPLRRASLSLGSGFWHATGRHSSRRLLRAIPRQVAQTLQADVLWQMGYTGANVRVAVFDTGLSEKHPHFKNVKERTNWTNERTLDDGLGHGTFVAGVIASMRECQGFAPDAELHIFRVFTNNQVSYTSWFLDAFNYAILKKIDVLNLSIGGPDFMDHPFVDKVWELTANNVIMVSAIGNDGPLYGTLNNPADQMDVIGVGGIDFEDNIARFSSRGMTTWELPGGYGRVKPDIVTYGAGVRGSGVKGGCRALSGTSVASPVVAGAVTLLVSTVQKRELVNPASVKQALIASARRLPGVNMFEQGHGKLDLLRAYQILSSYKPQASLSPSYIDLTECPYMWPYCSQPIYYGGMPTIVNVTILNGMGVTGRIVDKPEWRPYLPQNGDNIEVAFSYSSVLWPWSGYLAISISVTKKAASWEGIAQGHIMITVASPAETEAKNGAEHTSTVKLPIKVKIIPTPPRSKRVLWDQYHNLRYPPGYFPRDNLRMKNDPLDWNGDHVHTNFRDMYQHLRSMGYFVEVLGAPFTCFDATQYGTLLMVDSEEEYFPEEIAKLRRDVDNGLSLVIFSDWYNTSVMRKVKFYDENTRQWWMPDTGGANIPALNELLSVWNMGFSDGLYEGEFALANHDMYYASGCSIAKFPEDGVVITQTFKDQGLEVLKQETAVVENVPILGLYQIPAEGGGRIVLYGDSNCLDDSHRQKDCFWLLDALLQYTSYGVNPPSLSHSGNRQRPPSGAGLAPPERMEGNHLHRYSKVLEAHLGDPKPRPLPACPHLSWAKPQPLNETAPSNLWKHQKLLSIDLDKVVLPNFRSNRPQVRPLSPGESGAWDIPGGIMPGRYNQEVGQTIPVFAFLGAMVALAFFVVQISKAKSRPKRRRPRAKRPQLTQQTHPPRTPSV
[5]
  cleaved nuclear form of HSV-tagged SREBP-2 on immunoblot (SRD-12B cells) (fold higher levels of expression): 10
